Reference: publication PMC8196016

Molecular target: SARS-CoV-2 RBD trimer protein (SARS-CoV-2 | bacteriophage T4) (UniProt P0DTC2)
Assay: SEC; Superdex 200 Increase 10/300 GL; four peaks, peak 3 taken as the trimer by expected size and Western blotting under non-reducing conditions

## SARS-CoV-2 RBD trimer protein (from UniProt P0DTC2 319-541) (domain or fragment)
  stoichiometry N: 3
